# Laboratory results as given in the RNAGym collection of RNA variant scans (doi:10.1101/gr.219683.116).
# B1: mRNA-splicing (parent)
# chain: AGUUGCUGCUGGGAGCUCCAGCACAGUGAAAUGGACAGAAGGGCAGAGCAA
# Variants of: B1
# Experiment: exon inclusion enrichment index; higher = more inclusion; WT1 exon 5 minigene, HEK293
row,Variant,exon inclusion enrichment index
1,AGUUUCUUUUGGGGGCUCCAGCACAGUGAAAUGGACAGAAGGGCAGAGCAA,0.0707
2,AGUUUCUUUUGGGCCCUCCAGCACAGUGAAAUGGACAGAAGGGCAGAGCAA,0.0167
3,AGUUUCUUUUGGGCUCUCCAGCACAGUGAAAUGGACAGAAGGGCAGAGCAA,0.0169
4,AGUUUCUUUUGGGCACUCCAGCACAGUGAAAUGGACAGAAGGGCAGAGCAA,0.0209
5,AGUUUGGUUUGGGAGCUCCAGCACAGUGAAAUGGACAGAAGGGCAGAGCAA,0.0864
6,AGUUUCUUUUGGGAGCUCCGCCACAGUGAAAUGGACAGAAGGGCAGAGCAA,0.187
7,AGUUUCUUUUGGGAGCUCCGUCACAGUGAAAUGGACAGAAGGGCAGAGCAA,0.195
8,AGUUUCUUUUGGGAGCUCCGACACAGUGAAAUGGACAGAAGGGCAGAGCAA,0.241
9,AGUUUCUCGUGGGAGCUCCAGCACAGUGAAAUGGACAGAAGGGCAGAGCAA,1.51
10,AGUUUCUCUUGGGAGCUCCAGCACAGUGAAAUGGACAGAAGGGCAGAGCAA,0.417
11,AGUUUCUCAUGGGAGCUCCAGCACAGUGAAAUGGACAGAAGGGCAGAGCAA,0.689
12,AGUUUCUUUUGGGAGCUCCCACACAGUGAAAUGGACAGAAGGGCAGAGCAA,0.0355
13,AGUUUCUUUUGGGAGCUCCCCCACAGUGAAAUGGACAGAAGGGCAGAGCAA,0.0207
14,AGUUUCUUUUGGGAGCUCCCUCACAGUGAAAUGGACAGAAGGGCAGAGCAA,0.0336
15,AGUUUGCACCGGGAGCUCCAGCACAGUGAAAUGGACAGAAGGGCAGAGCAA,2.27
16,AGUUUGCACAGGGAGCUCCAGCACAGUGAAAUGGACAGAAGGGCAGAGCAA,0.1
17,AGUUUAGGAUGGGAGCUCCAGCACAGUGAAAUGGACAGAAGGGCAGAGCAA,0.0473
18,AGUUUCUUCUGGGAGCUCCAGCACAGUGAAAUGGACAGAAGGGCAGAGCAA,1.33
19,AGUUUCUCCUGGGAGCUCCAGCACAGUGAAAUGGACAGAAGGGCAGAGCAA,1.34
20,AGUUUCUACUGGGAGCUCCAGCACAGUGAAAUGGACAGAAGGGCAGAGCAA,1.23
21,AGUUUCUUUUGGGAGCUCCAGCCGAGUGAAAUGGACAGAAGGGCAGAGCAA,0.632
22,AGUUUCUUUUGGGAGCUCCAGCCAAGUGAAAUGGACAGAAGGGCAGAGCAA,0.231
23,AGUUUCUUUUGGGAGCUCCAGCCUAGUGAAAUGGACAGAAGGGCAGAGCAA,0.0326
24,AGUUUUCGCCGGGAGCUCCAGCACAGUGAAAUGGACAGAAGGGCAGAGCAA,3.03
25,AGUUUGUCUCGGGAGCUCCAGCACAGUGAAAUGGACAGAAGGGCAGAGCAA,1.09
26,AGUUUUUUUUGGGAGCUCCAGCACAGUGAAAUGGACAGAAGGGCAGAGCAA,0.0204

row,Variant,exon inclusion enrichment index
1,AGUUUUAGAAGGGAGCUCCAGCACAGUGAAAUGGACAGAAGGGCAGAGCAA,0.0191
2,AGUUUCUUUUGGGAGCUCCAGCACAGUGCAAUGGACAGAAGGGCAGAGCAA,0.0814
3,AGUUUCUUUUGGGAGCUCCAGCACAGUGCCAUGGACAGAAGGGCAGAGCAA,0.344
4,AGUUUCUUUUGGGAGCUCCAGCACAGUGCGAUGGACAGAAGGGCAGAGCAA,0.414
5,AGUUUCUUUUGGGAGCUCCAGCACAGUGCUAUGGACAGAAGGGCAGAGCAA,0.0831
6,AGUUUCUUUUGGGAGCUCCAGCUUAGUGAAAUGGACAGAAGGGCAGAGCAA,0.00337
7,AGUUUCUUUUGGGAGCUCCAGCUAAGUGAAAUGGACAGAAGGGCAGAGCAA,0.0491
8,AGUUUCUUUUGGGAGCUCCAGCUGAGUGAAAUGGACAGAAGGGCAGAGCAA,0.223
9,AGUUUUGUUUGGGAGCUCCAGCACAGUGAAAUGGACAGAAGGGCAGAGCAA,0.119
10,AGUUUCUUUUGGGAGCUCCAGCACCUUGAAAUGGACAGAAGGGCAGAGCAA,0.328
11,AGUUUCUUUUGGGAGCUCCAGCACCAUGAAAUGGACAGAAGGGCAGAGCAA,0.504
12,AGUUUCUUUUGGGAGCUCCAGCACCCUGAAAUGGACAGAAGGGCAGAGCAA,0.215
13,AGUUUCUCUCGGGAGCUCCAGCACAGUGAAAUGGACAGAAGGGCAGAGCAA,0.934
14,AGUUUUCUUUGGGAGCUCCAGCACAGUGAAAUGGACAGAAGGGCAGAGCAA,0.154
15,AGUUUCUGGUGGGAGCUCCAGCACAGUGAAAUGGACAGAAGGGCAGAGCAA,0.253
16,AGUUUCUGUUGGGAGCUCCAGCACAGUGAAAUGGACAGAAGGGCAGAGCAA,0.393
17,AGUUUCUGAUGGGAGCUCCAGCACAGUGAAAUGGACAGAAGGGCAGAGCAA,0.991
18,AGUUUCUAAUGGGAGCUCCAGCACAGUGAAAUGGACAGAAGGGCAGAGCAA,0.204
19,AGUUUCUAUUGGGAGCUCCAGCACAGUGAAAUGGACAGAAGGGCAGAGCAA,0.205
20,AGUUUCUAGUGGGAGCUCCAGCACAGUGAAAUGGACAGAAGGGCAGAGCAA,0.061
21,AGUUUCUUUUGGGGUCUCCAGCACAGUGAAAUGGACAGAAGGGCAGAGCAA,0.0063
22,AGUUUCUUUUGGGGACUCCAGCACAGUGAAAUGGACAGAAGGGCAGAGCAA,0.0466
23,AGUUUCUUUUGGGGCCUCCAGCACAGUGAAAUGGACAGAAGGGCAGAGCAA,0.0571
24,AGUUUAGUUUGGGAGCUCCAGCACAGUGAAAUGGACAGAAGGGCAGAGCAA,0.013
25,AGUUUGAGAAGGGAGCUCCAGCACAGUGAAAUGGACAGAAGGGCAGAGCAA,0.147
